Molecular target: T1, Soluble U20 extracellular domain (sU20) of HHV-6B (HHV-6B, nine N-linked glycosylation sites with high mannose glycans; after EndoH a single GlcNAc at each site)
T1 construct: HHV-6B U20 glycoprotein, extracellular domain; Dimer in solution when alone (SEC-MALS, SEC-SAXS); Used glyco-intact or EndoH-treated, as told for each assay; also called soluble recombinant U20; source: stably transduced HEK293 GnTI cells, purified from supernatant (Nickel-NTA, cation exchange, SEC); in some cases treated with EndoH; not shown: 6xHIS, C-terminal, kept
Assay: SPR; Biacore 3000; biotinylated ULBP1-Fc (1000-2500 RU) on a Neutravidin coated CM5 chip; U20 injected at 0.125-32 μM; CD200 receptor Fc flow cell subtracted; equilibrium fit, one site specific binding, apparent; 20°C
Conditions: both partners purified

B1: ULBP1-Fc (Fc fusion)
chain: GWVDTHCLCYDFIITPKSRPEPQWCEVQGLVDERPFLHYDCVNHKAKAFASLGKKVNVTKTWEEQTETLRDVVDFLKGQLLDIQVENLIPIEPLTLQARMSCEHEAHGHGRGSWQFLFNGQKFLLFDSNNRKWTALHPGAKKMTEKWEKNRDVTMFFQKISLGDCKMWLEEFLMYWEQMLDPTKPPSLAPG
modifications: biotin on the BirA recognition sequence (for SPR)
- Kd: ~230 nM

— paper PMC11215065, “The HHV-6B U20 glycoprotein binds ULBP1, masking it from recognition by NKG2D and interfering with natural killer cell activation” (Frontiers in Immunology, 2024)
